pKd: −log10 of the molar value.
Target: HLA-A*33:03
Experiment: IEDB peptide-MHC binding, purified MHC/competitive/fluorescence; filed as Kd, often an IC50 or EC50 that approximates it; ≥ and ≤ were set here for values at or beyond the usual limits of such assays
Conditions: source organism: Homo sapiens

Sequence | pKd
DIYNHRFHR | 8.62
DTYLHRVAR | 8.66
DVFPGPSFR | 8.66
EFVDLYVPR | 8.29
ETFPQRHMR | 8.50
ETHFPFAIR | 8.68
ETMPSPYGR | 8.51
EVASVWVER | 7.94
EVFEYIIFR | 8.33
EVINDYHFR | 8.27
EVKESPFFR | 8.44
FTWNINHAR | 8.49
MLYGLIHAR | 8.46
MTILQTYFR | 8.50
NTLQLHRYR | 8.47
NTNDFVTLR | 8.31
QLYPRNFLR | 8.41
TTTEHRFFR | 8.70
VVAAVRWRR | 8.44

The next sequences have a higher pKd than those just listed; values first:

pKd | Sequence
8.75 | ETYKYLYGR
8.75 | EFQDFTVPR
8.75 | ETVERIFRR
8.77 | ETYLHRIGR
8.77 | ELFDFLHAR
8.83 | EFFIPRVGR
8.84 | SYIDRLAPR
8.84 | YVFPKPFNR
8.86 | DAQRLHYYR
8.86 | YVQRFHYSR
8.89 | EVYDIAFSR
9.02 | FVFDRPVHR
9.04 | STARHLYLR
9.55 | EFFSINAQR
